Starred links: 1 amine or outer side, 2 acyl side, 3 side chain; linkers in the order of their positions; H or OH if unused. Positions of bridges follow the written chain, without caps; N, C: chain ends. Non-standard residues stand in square brackets, D forms with d. Groups on a side chain read outwards from the residue. *: point of attachment. PEG12 = NCCOCCOCCOCCOCCOCCOCCOCCOCCOCCOCCOCCOCCC(=O)O; Phe(3,4-F2) = N[C@@H](Cc1ccc(F)c(F)c1)C(=O)O; Dip = N[C@H](C(=O)O)C(c1ccccc1)c1ccccc1; γGlu = O=C(O)[C@H](CCC(=O)[*:2])N[*:1]; 2Nal = N[C@@H](Cc1ccc2ccccc2c1)C(=O)O; AEF = NCCOc1ccc(C[C@H](N)C(=O)O)cc1; Palmitoyl = CCCCCCCCCCCCCCCC(=O)*; β3hF = N[C@H](CC(=O)O)Cc1ccccc1; Isovaleryl = CC(C)CC(=O)*; Npc = nipecotic acid; βAla = NCCC(=O)O
T1: human ferroportin (SLC40A1) fused with GFP, stably expressed in HEK293 cells (human, UniProt Q9NP59 1-571)
T1 sequence (looked up): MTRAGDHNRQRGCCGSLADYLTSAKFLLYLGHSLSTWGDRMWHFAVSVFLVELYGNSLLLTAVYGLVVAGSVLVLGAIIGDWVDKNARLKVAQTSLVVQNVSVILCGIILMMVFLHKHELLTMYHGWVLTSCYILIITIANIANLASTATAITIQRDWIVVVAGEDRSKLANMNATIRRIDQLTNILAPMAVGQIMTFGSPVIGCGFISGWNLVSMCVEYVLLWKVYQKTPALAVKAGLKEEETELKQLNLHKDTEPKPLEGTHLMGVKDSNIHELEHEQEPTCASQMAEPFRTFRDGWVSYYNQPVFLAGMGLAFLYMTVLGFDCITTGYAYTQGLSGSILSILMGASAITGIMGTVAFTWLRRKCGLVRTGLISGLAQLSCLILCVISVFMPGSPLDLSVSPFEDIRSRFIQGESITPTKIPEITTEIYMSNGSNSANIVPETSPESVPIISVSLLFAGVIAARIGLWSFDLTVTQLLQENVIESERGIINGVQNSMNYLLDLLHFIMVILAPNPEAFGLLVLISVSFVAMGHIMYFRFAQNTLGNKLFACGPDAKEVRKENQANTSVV

T2: human ferroportin (SLC40A1) fused in frame with the GFP protein, stably expressed in HEK293 cells (human, UniProt Q9NP59 1-571)
T2 sequence (looked up): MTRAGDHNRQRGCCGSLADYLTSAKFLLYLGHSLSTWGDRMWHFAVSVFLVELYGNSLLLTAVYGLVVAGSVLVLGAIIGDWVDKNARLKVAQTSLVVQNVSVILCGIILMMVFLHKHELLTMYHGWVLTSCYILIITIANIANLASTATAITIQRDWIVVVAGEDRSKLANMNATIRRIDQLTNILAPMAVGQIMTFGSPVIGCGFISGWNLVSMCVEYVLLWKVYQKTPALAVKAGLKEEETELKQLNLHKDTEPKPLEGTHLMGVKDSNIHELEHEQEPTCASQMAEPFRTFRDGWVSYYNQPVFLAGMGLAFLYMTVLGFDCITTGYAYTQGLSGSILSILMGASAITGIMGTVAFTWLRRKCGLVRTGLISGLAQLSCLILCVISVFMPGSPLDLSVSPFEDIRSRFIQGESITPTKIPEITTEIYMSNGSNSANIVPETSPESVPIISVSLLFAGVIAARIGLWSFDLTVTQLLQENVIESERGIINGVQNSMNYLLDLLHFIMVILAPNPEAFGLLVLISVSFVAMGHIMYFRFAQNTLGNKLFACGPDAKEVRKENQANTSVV


Assays:
[1] = target: T1, human ferroportin (SLC40A1) fused with …; assay: cell-based or functional assay
[2] = target: T2, human ferroportin (SLC40A1) fused in …; assay: cell-based or functional assay

Binder | FPN IC50 [1] [nM] | FPN IC50 [2] [nM]
DTHFPCIKFKC (Isovaleric acid-DTHFPCIKF-Lys[PEG11-Palm]-C-NH2) [Compd ID 8] | 6 | 
Isovaleryl-DTH[Dip][Npc]CI[dK][AEF]K([PEG12-Palmitoyl])KC-NH2 (disulfide 6-12 (inferred)) [Compd ID 111] | > 3000 | 
Isovaleryl-DTHF[Npc]CI[dK]FK([PEG12-Palmitoyl])[dK]C-NH2 (disulfide 6-12 (inferred)) [Compd ID 118] | 6 | 
DTHXPCIKFKKX (Isovaleric acid-DTH-[Dpa]-PCI-[(D)Lys]-F-[Lys(Peg11-Palm)]-[(D)Lys]-Pen-NH2) [Compd ID 132] | 4 | 
Isovaleryl-DTH[Dip][Npc]CI[dK][2Nal]K([PEG12-Palmitoyl])KC-NH2 (disulfide 6-12 (inferred)) [Compd ID 112] | 4 | 
DTHXPCIKFKKX (Isovaleric acid-DTH-[Dpa]-PCI-[(D)Lys]-F-[Lys(Peg11-Palm)]-K-[N-Me-Cys]-NH2) [Compd ID 133] | 13.5 | 
DTHFPCIKFKKX (Isovaleric acid-DTH-F-PCI-[(D)Lys]-F-[Lys(Peg11-Palm)]-K-[a-MeCysl-NH2) [Compd ID 114] | 3 | 
DTHXPCIKXKKC (Isovaleric acid-DTH-[Dpa]-PCI-[(D)Lys]-[b-hPhe]-[Lys(Peg11-Palm)]-[(D)Lys]-C-NH2) [Compd ID 122] | 5 | 
DTHXPCIKXKKC (Isovaleric acid-DTH-[Dpa]-PCI-[(D)Lys]-[Dpa]-[Lys(Peg11-Palm)]-[(D)Lys]-C-NH2) [Compd ID 131] | 14 | 
Isovaleryl-DTH[Dip][Npc]CI[dK]FK([PEG12-Palmitoyl])[dK]C-NH2 (disulfide 6-12 (inferred)) [Compd ID 117] | 2 | 
Isovaleryl-DIH[Dip]PCI[dK]FK([PEG12-Palmitoyl])[dK]C-NH2 (disulfide 6-12 (inferred)) [Compd ID 130] | 169 | 
Isovaleryl-DTH[Dip][Npc]CI[dK][Phe(3,4-F2)]K([PEG12-Palmitoyl])KC-NH2 (disulfide 6-12 (inferred)) [Compd ID 127] | 3 | 
DTHXPCIKFKKC (Isovaleric acid-DTH-[a-MePhe]-PCI-[(D)Lys]-F-[Lys(Peg11-Palm)]-[(D)Lys]-C-NH2) [Compd ID 128] | 204 | 
DTHXPCIKFKKC (Isovaleric acid-DTH-[b-hPhe]-PCI-[(D)Lys]-F-[Lys(Peg11-Palm)]-[(D)Lys]-C-NH2) [Compd ID 121] | 9 | 
DTHXPCIKFKKX (Isovaleric acid-DTH-[Dpa]-PCI-[(D)Lys]-F-[Lys(Peg11-Palm)]-[(D)Lys]-[N-Me-Cys]-NH2) [Compd ID 134] | 22.5 | 
DTHFPXIKFKKC (Isovaleric acid-DTHFP-[a-MeCys]-I-[(D)Lys]-F-[Lys(Peg11-Palm)]-K-C-NH2) [Compd ID 116] | 11 | 
DTHXPCIKFKKC (Isovaleric acid-DTH-[Phe(4-COOH)-PCI-[(D)Lys]-F-[Lys(Peg11-Palm)]-[(D)Lys]-C-NH2) [Compd ID 120] | > 1000 | 
DTHFPCIKFKPCK (Isovaleric acid-DTHFPCIKF-Lys[PEG11-Palm]-PCK-NH2) [Compd ID 9] | 15 | 
DTHFPXIKFKKX (Isovaleric acid-DTHFP-[a-MeCys]-I-[(D)Lys]-F-[Lys(Peg11-Palm)]-K-[a-MeCys]-NH2) [Compd ID 115] | 4 | 

Continued, values first:

FPN IC50 [1] [nM] | FPN IC50 [2] [nM] | Binder
19.5 |  | DTHXPCIKFKKC (Isovaleric acid-DTH-[Dpa]-PCI-[(D)Lys]-F-[Lys(Peg11-Palm)]-[(D)Lys]-C-NH2) [Compd ID 139]
23 |  | DTHXPCIKFKXC (Isovaleric acid-DTH-[Dpa]-PCI-[(D)Lys]-F-[Lys(Peg11-Palm)]-[Dab]-C-NH2) [Compd ID 137]
26.5 |  | DTHXPXIKFKXC (Isovaleric acid-DTH-[Dpa]-P-[Hcy]-I-[(D)Lys]-F-[Lys(Peg11-Palm)]-[Dap]-C-NH2) [Compd ID 141]
51 |  | DTHXPCIKFKXX (Isovaleric acid-DTH-[Dpa]-PCI-[(D)Lys]-F-[Lys(Peg11-Palm)]-[Dap]-[Pen]-NH2) [Compd ID 140]
20.5 |  | DTHXPCIKFKXC (Isovaleric acid-DTH-[Dpa]-PCI-[(D)Lys]-F-[Lys(Peg11-Palm)]-[b-hLys]-C-NH2) [Compd ID 138]
22 |  | DTHXPCIKFKC (Isovaleric acid-DTH-[Dpa]-PCI-[(D)Lys]-F-[Lys(Peg11-Palm)]-C-NH2) [Compd ID 135]
32 |  | Isovaleryl-DTHFPCI[dK]FK([PEG12-Palmitoyl])CK-NH2 (disulfide 6-11 (inferred)) [Compd ID 144]
18 |  | Isovaleryl-DTH[Dip]PCI[βAla][β3hF]K([PEG12-Palmitoyl])[dK]C-NH2 (disulfide 6-12 (inferred)) [Compd ID 145]
27 |  | DTHXPCIKFKXC (Isovaleric acid-DTH-[Dpa]-PCI-[(D)Lys]-F-[Lys(Peg11-Palm)]-[Orn]-C-NH2) [Compd ID 136]
12 |  | DTHXPXIKFKXX (Isovaleric acid-DTH-[Dpa]-P-[Hcy]-I-[(D)Lys]-F-[Lys(Peg11-Palm)]-[Dap]-[Hcy]-NH2) [Compd ID 142]
 | 11 | Isovaleryl-DTHFPCIK([γGlu-Palmitoyl])FEPRSKC-NH2 (disulfide 6-15; SMILES CCCCCCCCCCCCCCCC(=O)N[C@@H](CCC(=O)NCCCC[C@@H]1NC(=O)[C@H]([C@@H](C)CC)NC(=O)[C@@H](NC(=O)[C@@H]2CCCN2C(=O)[C@H](Cc2ccccc2)NC(=O)[C@H](Cc2c[nH]cn2)NC(=O)[C@@H](NC(=O)[C@H](CC(=O)O)NC(=O)CC(C)C)[C@@H](C)O)CSSC[C@@H](C(N)=O)NC(=O)[C@H](CCCCN)NC(=O)[C@H](CO)NC(=O)[C@H](CCCNC(=N)N)NC(=O)[C@@H]2CCCN2C(=O)[C@H](CCC(=O)O)NC(=O)[C@H](Cc2ccccc2)NC1=O)C(=O)O) [Compd ID 202]
 | 9 | Isovaleryl-DTHFPCIK([γGlu-Palmitoyl])FEPRSKGC-NH2 (disulfide 6-16; SMILES CCCCCCCCCCCCCCCC(=O)N[C@@H](CCC(=O)NCCCC[C@@H]1NC(=O)[C@H]([C@@H](C)CC)NC(=O)[C@@H](NC(=O)[C@@H]2CCCN2C(=O)[C@H](Cc2ccccc2)NC(=O)[C@H](Cc2c[nH]cn2)NC(=O)[C@@H](NC(=O)[C@H](CC(=O)O)NC(=O)CC(C)C)[C@@H](C)O)CSSC[C@@H](C(N)=O)NC(=O)CNC(=O)[C@H](CCCCN)NC(=O)[C@H](CO)NC(=O)[C@H](CCCNC(=N)N)NC(=O)[C@@H]2CCCN2C(=O)[C@H](CCC(=O)O)NC(=O)[C@H](Cc2ccccc2)NC1=O)C(=O)O) [Compd ID 201]
18 |  | DTHXPCIKFKXX (Isovaleric acid-DTH-[Dpa]-PCI-[(D)Lys]-F-[Lys(Peg11-Palm)]-[Dap]-[Hcy]-NH2) [Compd ID 143]

Source: patent US20200361992A1 (PROTAGONIST THERAPEUTICS, published 2020)
